Kd data for 1 substance are collected here from article doi:10.1101/2023.06.26.546492.

For this assay, the target named is His-SUMO-tagged full-length SARS-CoV-2 nsp14 (SARS-CoV-2) (UniProt P0DTD1). Kind of assay: MST.

As a reminder, the Kd is the constant that tells how readily two partners part at equilibrium. The low end stands for higher affinity, the high end for lower affinity. “short SARS-CoV-2 nsp10 construct (from UniProt P0DTD1 4264-4385) (domain or fragment)” displayed a Kd of 13.9 µM.
